This is an account of results in patent publication US20140294814A1 (SAMSUNG ELECTRONICS, published 2014).

The Kd is a measure of binding affinity in units of concentration. In general, koff refers to the rate constant with which the complex falls apart. A high value points to fast dissociation. In general, kon refers to the second-order rate constant of association.

The target of assay [1] is T1, c-Met (NP_000236) (human, UniProt P08581 25-932, limits assumed).
T1 construct: also called antigen
T1 sequence (P08581 25-932 limits assumed): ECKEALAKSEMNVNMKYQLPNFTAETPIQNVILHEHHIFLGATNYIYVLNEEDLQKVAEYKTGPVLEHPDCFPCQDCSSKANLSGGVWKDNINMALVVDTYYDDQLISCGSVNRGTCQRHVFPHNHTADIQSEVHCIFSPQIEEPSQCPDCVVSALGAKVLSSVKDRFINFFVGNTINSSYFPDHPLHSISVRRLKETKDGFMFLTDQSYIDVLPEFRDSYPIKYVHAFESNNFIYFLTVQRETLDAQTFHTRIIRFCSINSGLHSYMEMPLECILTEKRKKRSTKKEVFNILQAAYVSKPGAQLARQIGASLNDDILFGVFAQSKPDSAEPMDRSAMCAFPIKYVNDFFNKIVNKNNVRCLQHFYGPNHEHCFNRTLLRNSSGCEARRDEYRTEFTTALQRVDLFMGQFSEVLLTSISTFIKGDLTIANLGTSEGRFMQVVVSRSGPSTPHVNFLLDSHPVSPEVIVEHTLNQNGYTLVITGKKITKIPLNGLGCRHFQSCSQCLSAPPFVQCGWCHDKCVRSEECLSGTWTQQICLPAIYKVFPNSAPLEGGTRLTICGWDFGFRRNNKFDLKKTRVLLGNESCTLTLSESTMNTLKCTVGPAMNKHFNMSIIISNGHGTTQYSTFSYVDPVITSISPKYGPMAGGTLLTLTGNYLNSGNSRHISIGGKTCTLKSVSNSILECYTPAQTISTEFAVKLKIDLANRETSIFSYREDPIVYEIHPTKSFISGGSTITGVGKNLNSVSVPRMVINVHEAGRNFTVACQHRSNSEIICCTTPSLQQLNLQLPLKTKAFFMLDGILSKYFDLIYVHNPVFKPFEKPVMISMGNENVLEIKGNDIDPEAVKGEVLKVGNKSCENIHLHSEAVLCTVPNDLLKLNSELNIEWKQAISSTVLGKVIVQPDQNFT
In words: estimated from several ELISAs, Fab.

Assay [2] deals with T1, c-Met (NP_000236). In words: ratio of the KD of chAbF46 to the KD of the clone.
The target of assay [3] is T1, c-Met (NP_000236). Briefly: kinetic measurement, method and format not stated.
Assay [4] addresses T1, c-Met (NP_000236). Briefly: method and reference clone not given.
Another assay has as its target T2, human IgG1 Fc protein (human, UniProt P01857-1 100-330 = IgG part, limits assumed).
T2 construct: domain: Fc; Counter-screen antigen in the hybridoma ELISA; also called human Fc protein; human Fc
In words: ELISA, plate-coated human IgG1 Fc protein, hybridoma culture supernatant. The method, then: The hybridoma cell culture obtained in Example 1(2) was added in an amount of 50 μL to each well of the plates and incubated for 1 hour. The cells remaining unreacted were washed out with a sufficient amount of Tris-buffered saline and Tween 20 (TBST). Goat anti-mouse IgG-horseradish peroxidase (HRP) was added to the plates and incubated for 1 hour at room temperature. The plates were washed with a sufficient amount of TBST. A substrate (OPD) of the peroxidase was added thereto, allowing the substrate and the peroxidase to react. The reaction level was determined by measuring absorbance at 450 nm on an ELISA reader. Hybridoma cell lines which secrete antibodies that specifically and strongly bind to human c-Met protein but not human Fc were selected repeatedly.

A value given as a limit tells only on which side of the number the result lay.

B1: clone L3E (Fab, V domains shown)
VH: EVQLVESGGGLVQPGGSLRLSCAASGFTFTDYYISWVRQAPGKGLEWVGFIRNKANGYTTEYSASVKGRFTISRDDSKNSLYLQMNSLKTEDTAVYYCARDNWFAYWGQGTLVTVSS
VL: DIVMTQSPLSLPVTPGEPASISCKSSQSLLASGNQNNYLAWYLQKPGQSPQLLIYWASTRVSGVPDRFSGSGSGTDFTLKISRVEAEDVGVYYCQQSYSRPLTFGQGTKLEIKR
As to B1, in the assay with c-Met (NP_000236) [1], the Kd was roughly 30 nM.

B2: clone L1bA (Fab) (Fab, V domains shown)
VH: EVQLVESGGGLVQPGGSLRLSCAASGFTFTDYYISWVRQAPGKGLEWVGFIRNKANGYTTEYSASVKGRFTISRDDSKNSLYLQMNSLKTEDTAVYYCARDNWFAYWGQGTLVTVSS
VL: DIVMTQSPLSLPVTPGEPASISCKSSQSLLAWGNQNNYLAWYLQKPGQSPQLLIYWASTRVSGVPDRFSGSGSGTDFTLKISRVEAEDVGVYYCQQSYSRPLTFGQGTKLEIKR
notes: L3E with S27->W (S27E->W) in CDR-L1; Fab with human kappa constant region and CH1 of human IgG1; also called LlbA
For B2, in the assay with c-Met (NP_000236) [1], the Kd is roughly 0.3 nM and the “fold improvement in binding over the starting clone L3E” value was roughly 100 fold. Moreover, in the assay with c-Met (NP_000236) [2], the “WT KD/Mutant KD” value worked out at 12.8 ratio.

B3: antibody C28m (mutated C28) (Fab, V domains shown)
VH: EVQLVESGGGLVQPGGSLRLSCAASGFTFTDYYISWVRQAPGKGLEWVGFIRNKANGYTTEYSASVKGRFTISRDDSKNSLYLQMNSLKTEDTAVYYCARDNWFAYWGQGTLVTVSS
VL: DIVMTQSPLSLPVTPGEPASISCKSSQSLLAWSNQNNYLAWYLQKPGQSPQMLIIWAITRVGGVPDRFSGSGSGTDFTLKISRVEAEDVGVYYCQQSYSRPYTFGQGTKLEIKR
notes: C28 with L46M, Y49I and L96Y in VL; Described as an antibody fragment cloned into the same vector as the wild type
In the assay with c-Met (NP_000236) [3], B3 gave a Kd of less than 0.01 nM, a koff of less than 7.4e-05 s⁻¹ and a kon of 940000 M⁻¹ s⁻¹.

B4: clone C30 (Fab) (Fab, V domains shown)
VH: EVQLVESGGGLVQPGGSLRLSCAASGFTFTDYYISWVRQAPGKGLEWVGFIRNKANGYTTEYSASVKGRFTISRDDSKNSLYLQMNSLKTEDTAVYYCARDNWFAYWGQGTLVTVSS
VL: DIVMTQSPLSLPVTPGEPASISCKSSQSLLAWGFQNNYLAWYLQKPGQSPQLLIYWASTRVGGVPDRFSGSGSGTDFTLKISRVEAEDVGVYYCQQSYSRPLTFGQGTKLEIKR
notes: Clone from the combinatorial library; Fab with human kappa constant region and CH1 of human IgG1
B4: the “fold enhancement of binding ability” value with c-Met (NP_000236) [4] is roughly 3 fold. Also, in the assay with c-Met (NP_000236) [2], the “WT KD/Mutant KD” value is 13.7 ratio.

B5: clone C28 (Fab) (Fab, V domains shown)
VH: EVQLVESGGGLVQPGGSLRLSCAASGFTFTDYYISWVRQAPGKGLEWVGFIRNKANGYTTEYSASVKGRFTISRDDSKNSLYLQMNSLKTEDTAVYYCARDNWFAYWGQGTLVTVSS
VL: DIVMTQSPLSLPVTPGEPASISCKSSQSLLAWSNQNNYLAWYLQKPGQSPQLLIYWAITRVGGVPDRFSGSGSGTDFTLKISRVEAEDVGVYYCQQSYSRPLTFGQGTKLEIKR
notes: as for B4
On to B5, for which, in the assay with c-Met (NP_000236) [4], the “fold enhancement of binding ability” value is roughly 3 fold. Also, in the assay with c-Met (NP_000236) [2], the “WT KD/Mutant KD” value stood at 19.9 ratio.

B6: clone 1-F3 (Fab) (Fab, V domains shown)
VH: EVQLVESGGGLVQPGGSLRLSCAASGFTFTDYYISWVRQAPGKGLEWVGFIRNKANGYTTEYSASVKGRFTISRDDSKNSLYLQMNSLKTEDTAVYYCARDNWFAYWGQGTLVTVSS
VL: DIVMTQSPLSLPVTPGEPASISCKSSQSLLAWGNQNNYAAWYLQKPGQSPQLLIYWASTRVSGVPDRFSGSGSGTDFTLKISRVEAEDVGVYYCQQSYSRPLTFGQGTKLEIKR
notes: as for B4
For the molecule B6, in the assay with c-Met (NP_000236) [4], the “fold enhancement of binding ability” value was roughly 3 fold. The “WT KD/Mutant KD” value with c-Met (NP_000236) [2] was determined as 8.8 ratio.

B7: chimeric clone of AbF46 (Fab) (Fab, V domains shown)
VH: EVKLVESGGGLVQPGGSLRLSCATSGFTFTDYYMSWVRQPPGKALEWLGFIRNKANGYTTEYSASVKGRFTISRDNSQSILYLQMDTLRAEDSATYYCARDNWFAYWGQGTLVTVSA
VL: DILMTQSPSSLTVSAGEKVTMSCKSSQSLLASGNQNNYLAWHQQKPGRSPKMLIIWASTRVSGVPDRFIGSGSGTDFTLTINSVQAEDLAVYYCQQSYSAPLTFGAGTKLELKR
notes: also called chAbF46
With B7, the Kd in the assay with c-Met (NP_000236) [1] was roughly 4 nM. In the assay with c-Met (NP_000236) [3], the Kd is 2.19 nM, the koff came to 0.000723 s⁻¹ and the kon was 329000 M⁻¹ s⁻¹.

B8: mouse antibody AbF46 (antibody, V domains shown)
VH: EVKLVESGGGLVQPGGSLRLSCATSGFTFTDYYMSWVRQPPGKALEWLGFIRNKANGYTTEYSASVKGRFTISRDNSQSILYLQMDTLRAEDSATYYCARDNWFAYWGQGTLVTVSA
VL: DILMTQSPSSLTVSAGEKVTMSCKSSQSLLASGNQNNYLAWHQQKPGRSPKMLIIWASTRVSGVPDRFIGSGSGTDFTLTINSVQAEDLAVYYCQQSYSAPLTFGAGTKLELKR
notes: Mouse monoclonal antibody from a hybridoma; also called monoclonal antibody of hybridoma KCLRF-BP-00220
Regarding B8, the binding result in the assay with human IgG1 Fc protein is given as “no binding”.
